Source: US7893023B2, “Prodrugs activated by plasmin and their use in cancer chemotherapy” (priority 2000, dated 2011)
Where two headings read alike, the source gives them in different places. Square brackets hold non-standard residues; d marks the D form. Peptide text beside a SMILES is read from it. * marks the point of attachment. ξ: configuration not given here. Doxorubicin(3'-N) = COc1cccc2c1C(=O)c1c(O)c3c(c(O)c1C2=O)C[C@@](O)(C(=O)CO)C[C@@H]3O[C@H]1C[C@H](N*)[C@H](O)[C@H](C)O1; X1 = COc1cccc2c1C(=O)c1c(O)c3c(c(O)c1C2=O)C[C@@](O)(C(C)=O)CC3OC1C[C@H](N*)[C@H](C)[C@H](C)O1; AMC = Cc1cc(=O)oc2cc(N*)ccc12; ξL = CC(C)CC(N)C(=O)O; ξK = NCCCCC(N)C(=O)O; ξA = CC(N)C(=O)O

Legend:
[1] = system: MCF-7/6 human mammary carcinoma cells; assay: In vitro accumulation by cultured MCF-7/6 tumor cells; assay type: cell-based; settings: 0.02 mM, 37° C., after 24 hours
Description: Compound I, DNR was incubated in vitro at 37° C. in the presence of MCF-7/6 human mammary carcinoma cells and the intracellular accumulation of the compound or its potential metabolites were analyzed by HPLC and fluorimetry, after extraction of the drugs from the cells.
Compound I, DNR was dissolved in distilled water at 17.24 μmole/ml and then diluted to obtain 0.02 mM in DMEM-F12 culture medium supplemented with 10% fetal calf serum (glutamax-I). Four ml of medium was poured in 25 cm^2 flasks (ref 3014. FALCON), and the cells were incubated for 30 minutes, 1, 3, 6 and 24 hours at 37° C. Then the cells were washed three times with PBS, and the cells were scraped from the flasks, and sonicated for 30 seconds at 100 Watts in a ice bath. Aliquots of 500 μl from each sample were then extracted with 1.8 ml of a chloroform:methanol mixture (4:1 by volume) to which 0.1 ml of 0.2 M borate buffer at pH 9.2, containing DOX at […] as internal standard, were added. After stirring, the organic layer was dried and resuspended in 400 μl of distilled water, sonicated 5 minutes at 100 Watts in a ice-bath and filtered through a 0.22 μm filter (Waters-Millipore, MILLEX-GV) and then analyzed by HPLC.
On a aliquot of 100 μl, the protein content of the cell homogenate was determined.

B16-B16 melanoma cells = assay: Uptake by B16-B16 cells; assay type: cell-based, murine
Description: This experiment was conducted to evaluate whether the prodrugs were able to enter cultured cells in their non-hydrolyzed forms. In addition, it was desired to estimate the capacity of the prodrugs to induce detectable levels of products of their enzymatic hydrolysis (DNR and its amino acid derivatives) inside B16-B16 cells. N-Leu-Leu-DNR was chosen as a reference drug since it is the product that is directly liberated by plasmin from Compound II, DNR.
At determined time points (1, 3, 5 and 24 hours), the cells were washed, harvested and lysed by ultrasonication. The concentration of the drugs and metabolites in the cell lysates were determined after extraction and HPLC analysis (See General Methods, Section J.). The amounts of anthracycline derivatives found per mg of protein were then compared.

human plasmin = molecular target: T1, human plasmin (Homo sapiens, UniProt P00747); assay: Hydrolysis by human plasmin; assay type: biochemical; settings: for rate of in vitro hydrolysis by human plasmin: 0.17 mM, 0.1 units human plasmin, 25° C., 50 mM pH 8.0 TES buffer
T1 construct: purchased Sigma
T1 sequence (P00747 581-810 limits assumed): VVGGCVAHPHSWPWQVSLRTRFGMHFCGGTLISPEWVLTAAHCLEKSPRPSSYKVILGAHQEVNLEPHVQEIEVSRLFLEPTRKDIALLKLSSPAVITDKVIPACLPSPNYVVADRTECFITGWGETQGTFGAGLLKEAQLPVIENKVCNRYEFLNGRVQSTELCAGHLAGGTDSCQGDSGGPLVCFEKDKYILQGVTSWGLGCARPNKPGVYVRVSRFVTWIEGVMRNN
T1 sequence (P00747 97-580 partner limits assumed): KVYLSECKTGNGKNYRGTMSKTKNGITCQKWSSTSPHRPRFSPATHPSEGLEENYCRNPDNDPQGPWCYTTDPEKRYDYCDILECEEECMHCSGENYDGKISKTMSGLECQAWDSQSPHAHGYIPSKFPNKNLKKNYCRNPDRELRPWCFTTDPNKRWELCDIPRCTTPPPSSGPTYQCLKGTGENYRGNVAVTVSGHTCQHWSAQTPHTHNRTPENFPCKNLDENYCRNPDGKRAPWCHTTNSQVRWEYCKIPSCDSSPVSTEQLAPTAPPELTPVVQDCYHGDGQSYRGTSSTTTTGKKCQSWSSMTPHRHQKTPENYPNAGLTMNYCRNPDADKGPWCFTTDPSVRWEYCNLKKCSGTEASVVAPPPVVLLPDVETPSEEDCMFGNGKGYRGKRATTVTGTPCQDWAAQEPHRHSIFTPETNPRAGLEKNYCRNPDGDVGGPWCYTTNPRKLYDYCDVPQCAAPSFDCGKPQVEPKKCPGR
Description: In an eppendorf tube, 50 μl of the substrate at a concentration of 50 μM in DMF were mixed with 900 μl of TES buffer and 50 μl of an enzyme-containing solution. The mixture was incubated for 1 hour at 25° C. Fluorescence was determined (λexc=350 nm, λem=496 nm; fluorometer standardized with a 10 nM solution of 7-amido-4-methylcoumarin in PBS and the whole mixture excluding the enzyme). A dosage curve was done in parallel with known plasmin concentrations (at least five ½ dilutions). Plasmin activity was determined and expressed in IU/ml; μmole substrate transformed/min×ml.
Compounds I, DNR and II, DNR (0.17 mM), as well as D-Ala-Leu-Lys-7-amido-4-methylcoumarin (0.17 mM) were incubated at 25° C. in the presence of 0.1 units of human plasmin in a 50 mM, pH 8.0 TES buffer. For Compounds I, DNR and II, DNR, HPLC samples were prepared and analyzed by HPLC (See General Methods, Section J). In case of D-Ala-Leu-Lys-7-amido-4-methylcoumarin, after 1 hour of incubation, the fluorescence of the resulting solution was determined at λexc=350 nm, λem=496 nm (See General Methods, Section N.).
After 15, 45 and 60 min of incubation, triplicate aliquots were removed and the drugs and metabolites extracted prior to HPLC analysis (See General Methods, Section J.).

[2] = system: medium conditioned by cultured B16-B16 cells; assay: Hydrolysis in medium conditioned by B16-B16 cells; assay type: in vitro ADME, murine; settings: 17.24 μM, medium 20 times concentrated, 2 hours, 37° C.
Description: Compounds I, DNR and II, DNR (17.24 μM) were incubated in a medium freshly conditioned by the cultured B16-B16 cells (20 times concentrated) for 2 hours at 37° C. After that time, triplicate aliquots were removed and the drugs and metabolites extracted prior to HPLC analysis (See General Methods, Section J.).

[3] = system: LS174T colon tumor xenografts; assay: Chemotherapeutic activity in the LS174T human colon tumor xenograft model; assay type: in vivo, mice
Excerpt: Animals were kept under pathogen-free conditions with food and water supplied ad libitum, and kept for about one week before implantation of the tumors. Fragments (˜2 mm) of tumors grown in nude mice were implanted subcutaneously in both flanks of the mice. Tumors were generally allowed to grow to attain a diameter of 5-6 mm each (approximately two weeks).
The mice weighed 20.0-25.0 g at the beginning of the study. They were selected and assigned to groups in order to have equally distributed tumor volumes in the different groups. In each group, mice were labeled individually. Treatments were assigned randomly to those groups.
All dosing solutions were prepared the day of injection by dissolution in water ( 1/10 of the expected final volume) and further dilution with 0.9% (w/v) NaCl. The concentration of these solutions was checked (A475 nm determination) after sterilization by filtration (0.22 μm) and adjusted to the final required value using sterile 0.9% (w/v) NaCl).
Treatments were administered by the i.p. route. The mice received a constant volume (10 μl/g) of either saline (control group) or drug. Mortality and clinical signs were recorded up to 4 hours post-treatment on dosing days, and daily thereafter. Their behavior was equally noted. Individual body weights were generally recorded daily until day 14 and at least twice a week thereafter.
Tumor growth was monitored by two-dimensional measurements using calipers and a precision of 0.5 mm. Tumor volumes were calculated according to the following formula: Vt=[length×(width)^2]/2
Median relative tumor volumes (RTV) were calculated as tumor volumes determined at individual days divided by tumor volumes on day 0. For treated groups, growth inhibition was estimated as the percentage ratio of median RTV of treated (T) mice versus controls (C) on each day of tumor treatment. T/C(%)=[Median RTV(treated group)/Median RTV(control group)]×100
The minimal T/C value (%) for each treatment was used as a parameter for maximum efficacy. Duration of growth inhibition was assessed by considering growth delays (T-C) for one (200%) and two (400%) doublings of the median RTV).
To determine the statistical significance of any difference in median RTV between two groups, the Mann-Whitney test was used. The test was conducted at a p level of 0.05 (two tailed) using the GraphPad Prism 3.00 software.
Female Swiss nude mice were 5 weeks old upon delivery (See General Methods, Section O). They were kept under pathogen-free conditions with food and water supplied ad libitum, and kept for about one week before implantation of the tumors. Fragments (˜2 mm) of LS174T tumors grown in nude mice were implanted subcutaneously in both flanks of the mice used in the study. Tumors were left to grow for 17 days. At that time, the mice weighed about 20.5-26.5 g.
Mice were then selected and assigned to groups in order to have equally distributed tumor volumes in different groups (5-6 mice, 9-10 tumors/group). The dose levels of Compound II, DOX used in the study, were selected on the basis of a lethality study previously conducted on OF-1 normal mice. The dose of DOX was based on previous chemotherapy experiments performed in nude mice with the same dosing schedule.
Treatments were administered by the i.p. route on days 0, 1, 2, 3 and 4, the mice receiving a constant volume (10 μl/g) of either saline or the different dosing solutions. DOX was used at 3.8 μmol/kg, Compound II, DOX was used at 25.9 μmol/kg and 34.5 μmol/kg. Clinical signs (recorded 0.5, 1, 2 and 4 hours after dosing and daily between dosing days) and body weights (recorded on each day of tumor measurement) were used to assess treatment toxicity, tumor growth was monitored on days 7, 12, 15, 19, 22, 26, 29, 33 and 36 by two-dimensional measurements using calipers and a precision of 0.5 mm.

OF-1 mice = assay: Acute toxicity in OF-1 mice, i.p.; assay type: in vivo
Description: (§1) The percentage of surviving mice and the mean body weight of each dose group was plotted as a function of time. Cumulative mortality on day 14 and day 28 was also plotted as a function of the dose level for the purpose of IC50 determination. IC50 values were determined from sigmoidal regressions performed with the GraphPad Prism 3.00 software.
(§2) Male OF-1 mice (5 weeks old upon delivery), were kept for one week under laboratory conditions before the experiment. […] The animals were divided in six groups (5 mice per group) for toxicity studies and marked individually.
(§3) Mortality and clinical signs were recorded up to 4 hours post-treatment on dosing days, and daily thereafter. Individual body weights were recorded daily until day 14 and at least twice a week thereafter. The percentage of surviving mice and the mean body weight of each dose group were plotted as a function of time. Cumulative mortality on day 14 and day 28 was also plotted as a function of the dose level for the purpose of LD50 determination. LD50 values were determined by regression analysis.

[4] = Acute toxicity in OF-1 mice, i.p.; assay type: in vivo; settings: male, mouse, in vivo, ip; OF-1 mice, five i.p. injections days 0-4, calculated on day 28
Description: as §1, §2, §3

[5] = DOX 3.8 μmol/kg, Compound II, DOX lower dosage 25.9 μmol/kg, i.p. days 0-4

Description for B16-B16 murine melanoma: Male C57-B16 black mice were 5 weeks old upon delivery. The body weight of the animals was approximately 20 g at the beginning of the test (See General Methods, Section O).
The animals were divided in eight groups (5 mice per group). Confluent murine melanoma B16-B16 cells (See General Methods, Section E.) were washed twice with PBS and EDTA (See General Methods, Section F.) twice and detached with trypsin (2 min incubation at 37° C.), that was thereafter neutralized by DMEM-F12 (containing 10% of calf serum). The cells were centrifuged for 5 min at 300 g. The pellet was resuspended twice in the DMEM-F12 without serum and centrifuged 5 min at 300 g.
The number of cells per ml of DMEM-F12 was then estimated (Brucker chamber) and the dilution of 2.5×10^5 cells/ml prepared. Each animal received 200 μl of this suspension (5.0×10^4 cells) in its tail vein. The day of injection was considered day 0 of the study. […] Animals were weighed on days 0, 1, 3, 6, 8 and 14. Their behavior and eventual clinical signs were also noted. All animals were sacrificed on day 14 and autopsied.
The lung lobes were fixed in a Bouin's solution (picric acid: formaldehyde, 40%: acetic acid, 15:5:1, v/v). Every lobe immersed in the fixing solution in a Petri flask was uniformly lighted against an opaque black background. Pictures of the front and back side of every lobe were taken with the help of a light microscope, scanned and digitized. The relative surface occupied by B116-B16 colonies was then estimated with the Scion Image Program.
The individual mean values were analyzed with the Scheffe's F-test to evaluate the statistical significance of differences observed between the groups.

Molecule: COc1cccc2c1C(=O)c1c(O)c3c(c(O)c1C2=O)C[C@@](O)(C(C)=O)CC3OC1C[C@H](NC(=O)C(CC(C)C)NC(=O)C(CCCCN)NC(=O)C(CC(C)C)NC(=O)C(C)N)[C@H](C)[C@H](C)O1 (stereo partly drawn) [Compound I, DNR, D-Ala-Leu-Lys-Leu-DNR]
- accumulation by cultured MCF-7/6 cells [1]: approximately 0.1 μg/mg of cell proteins
- intracellular level of metabolite DNR (B16-B16 melanoma cells): 0.015±0.002 mmol/mg cell protein
- rate of in vitro hydrolysis by human plasmin (human plasmin): approximately 2.75 nmol/min/unit
- hydrolysis in medium conditioned by B16-B16 cells [2]: Negative results

Molecule: COc1cccc2c1C(=O)c1c(O)c3c(c(O)c1C2=O)C[C@@](O)(C(C)=O)CC3OC1C[C@H](NC(=O)C(CC(C)C)NC(=O)C(CC(C)C)NC(=O)C(CCCCN)NC(=O)C(CC(C)C)NC(=O)C(C)N)[C@H](C)[C@H](C)O1 (stereo partly drawn) [Compound II, DNR, D-Ala-Leu-Lys-Leu-Leu-DNR] (H-[ξA][ξL][ξK][ξL][ξL]-X1)
- rate of in vitro hydrolysis by human plasmin (human plasmin): 27.90 nmol/min/unit
- hydrolysis by plasmin, times more rapid than Compound I, DNR (human plasmin; same conditions): at least 10 times
- hydrolysis in medium conditioned by B16-B16 cells [2]: Negative results

Molecule: COc1cccc2c1C(=O)c1c(O)c3c(c(O)c1C2=O)C[C@@](O)(C(=O)CO)C[C@@H]3O[C@H]1C[C@H](NC(=O)[C@H](CC(C)C)NC(=O)[C@H](CC(C)C)NC(=O)[C@H](CCCCN)NC(=O)[C@H](CC(C)C)NC(=O)[C@@H](C)N)[C@H](O)[C@H](C)O1 [Compound II, DOX, D-Ala-Leu-Lys-Leu-Leu-DOX] (H-[dA]LKLL-{Doxorubicin(3'-N)})
- mice that died before the end of the study ([3]; 34.5 μmol/kg i.p. days 0-4, deaths on days 18, 34 and 35): three
- maximum loss of mean body weight ([3]; 34.5 μmol/kg, day 26): 14%
- treatment-related mortality [3, 5]: No treatment-related mortality
- weight loss [3, 5]: no significant weight loss
- body weight gained from day 6 to day 14 (B16-B16 murine melanoma; 34.5 μmol/kg): 4.9%
- mean body weight, % of initial (B16-B16 murine melanoma; 34.5 μmol/kg, day 14): 104.5%
- clinical signs of toxicity (B16-B16 murine melanoma; 34.5 and 69.0 μmol/kg): No clinical signs of toxicity were observed
- survival (OF-1 mice; OF-1 mice, 17.24-60.34 μmol/kg i.p. days 0-4): All animals survived to day 7
- clinical signs of toxicity (OF-1 mice; OF-1 mice, i.p.): piloerection, tremor, motor disturbances, stupor and finally, paralysis of the hind legs
- loss of mean body weight compared to initial body weight (critical threshold attained) (OF-1 mice; doses 34.48 (after second week), 43.1 and 60.34 μmol/kg (after first week)): ≥ 20%
- LD50 fold higher than that of DOX (OF-1 mice; same conditions): 8.4 fold
- LD50 at 28 day [4]: 34.5 µmol/kg

Molecule: Cc1cc(=O)oc2cc(NC(=O)[C@H](CCCCN)NC(=O)[C@H](CC(C)C)NC(=O)[C@@H](C)N)ccc12 [D-Ala-Leu-Lys-7-amido-4-methylcoumarin, reference compound] (H-[dA]-Leu-Lys-{AMC}; N-terminus assumed)
- rate of in vitro hydrolysis by human plasmin (human plasmin): 20.40 nmol/min/unit
- hydrolysis in medium conditioned by B16-B16 cells [2]: Negative results

Molecule: N-Leu-Leu-DNR
- intracellular level of metabolite DNR (B16-B16 melanoma cells; B16-B16 cells, 3 hours): 0.67±0.12 nmol/mg cell protein
- intracellular level of metabolite L-Leu-DNR (B16-B16 melanoma cells; B16-B16 cells, 3 hours): 81.22±6.66 nmol/mg cell protein
- intracellular level of the unchanged compound (B16-B16 melanoma cells; B16-B16 cells, 3 hours of incubation): 7.74±0.75 nmol/mg cell protein
- intracellular level of metabolite L-Leu-DNR (B16-B16 melanoma cells; B16-B16 cells, 24 hours): 98.57±16.76 nmol/mg cell protein
- intracellular level of the unchanged compound (B16-B16 melanoma cells; B16-B16 cells, 24 hours): 1.04±0.10 mmol/mg cell protein
- intracellular level of metabolite DNR (B16-B16 melanoma cells; B16-B16 cells, 24 hours (end of incubation)): 1.60±0.77 nmol/mg cell protein
